T1: Uhrf1 (Np95) SRA domain (mouse, UniProt Q8VDF2 405-613)
T1 sequence: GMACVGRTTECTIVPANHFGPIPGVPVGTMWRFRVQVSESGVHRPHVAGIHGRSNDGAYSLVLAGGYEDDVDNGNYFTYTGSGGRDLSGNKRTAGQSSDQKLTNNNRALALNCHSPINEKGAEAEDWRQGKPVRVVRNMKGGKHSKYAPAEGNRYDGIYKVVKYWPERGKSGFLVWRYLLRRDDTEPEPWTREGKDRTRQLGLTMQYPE

B1: CG/5mCG (hemi-methylated 12-bp) (dsDNA)
DNA 1: CTACCGGATTGC
DNA 2: GCAATCCGGTAG
modifications: 5mC at position 7 of strand 2 (GCAATCXGGTAG, X = 5mC)

Key:
[1] = test system: His-GST-MBD1 (1-75); assay: pull-down; conditions: 2 pg fragment mixed with 10 ug genomic DNA, 4 C overnight, q-PCR read-out, 5mC, PCR product, methylation procedure not detailed, EMSA/competition: 25 mM HEPES-NaOH pH 7.4, 0.1 M NaCl, 0.1 mM TCEP, 250 ng poly(dI-dC)(dI-dC), 30 min, 7.5% native PAGE in 1x TBE
[2] = target: T1, Uhrf1 (Np95) SRA domain; assay: EMSA; 0-3 uM SRA, 1 uM DNA, 250 ng poly(dI-dC); EMSA/competition: 25 mM HEPES-NaOH pH 7.4, 0.1 M NaCl, 0.1 mM TCEP, 250 ng poly(dI-dC)(dI-dC), 4 C, 30 min; 7.5% native PAGE in 1x TBE; conditions: protein: recombinant; blunt

Molecule	binding signal [1] [% recovered]	binding result [2]
methylated histone H3 DNA fragment	90	–
B1	–	binds

From publication PMC3858372, “Cell Cycle-Dependent Turnover of 5-Hydroxymethyl Cytosine in Mouse Embryonic Stem Cells”
